In patent US20180179267A1 (published 2018):

B1: AB-31 (antibody, V domains shown)
VH: EVQLVESGGGLVQPGRSLRLSCAASGFTFYDYNMHWVRQAPGKGLEWVSGISWNSGSIAYADSVKGRFTISRDNAKNSLYLQMNSLRAEDTALYYCAKAQKGTAFDIWGQGTMVTVSS
VL: DIQMTQSPSSLSASVGDRVTITCQASQDITNYLNWYQQKPGKAPKLLIYDASNLETGVPSRFSGSGSGTDFTFTISSLQPEDIATYYCQQYPVYPPTFGGGTKVEIKR
B2: AB-30-3 (antibody, V domains shown)
VH: QVQLVQSGAEVKKPGSSVKVSCKASGGTFSSYAISWVRQAPGQGLEWMGVIEPIFGFANYAQKFQGRVTITADESTSTAYMELSSLRSEDTAVYYCARDAGCSSTSCHKDVYFDYWGQGTLVTVSS
VL: DIQMTQSPSSLSASVGDRVTITCRASQSISSYLNWYQQKPGKAPKLLIYGASSLQSGVPSRFSGSGSGTDFTLTISSLQPEDFATYYCQQAYYPPWTFGGGTKVEIKR

Columns and labels:
[1] = biological target: T1, LukG_TCH1516; assay: MSD; Fab
T1 chain: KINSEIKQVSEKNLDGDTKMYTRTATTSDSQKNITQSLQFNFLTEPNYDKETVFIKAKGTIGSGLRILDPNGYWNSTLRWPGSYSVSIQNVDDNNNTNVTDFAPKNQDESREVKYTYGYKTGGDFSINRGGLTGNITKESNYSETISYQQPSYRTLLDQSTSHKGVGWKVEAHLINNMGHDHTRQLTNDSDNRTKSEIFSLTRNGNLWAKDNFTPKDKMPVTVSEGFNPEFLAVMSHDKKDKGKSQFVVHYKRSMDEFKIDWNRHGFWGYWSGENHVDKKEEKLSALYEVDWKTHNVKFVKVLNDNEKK

[2] = biological target: T2, LukGH of S. aureus USA300 TCH1516 (UniProt Q2FFA2 28-351; P21224 30-338); assay: MSD; Fab
T2 chain 1: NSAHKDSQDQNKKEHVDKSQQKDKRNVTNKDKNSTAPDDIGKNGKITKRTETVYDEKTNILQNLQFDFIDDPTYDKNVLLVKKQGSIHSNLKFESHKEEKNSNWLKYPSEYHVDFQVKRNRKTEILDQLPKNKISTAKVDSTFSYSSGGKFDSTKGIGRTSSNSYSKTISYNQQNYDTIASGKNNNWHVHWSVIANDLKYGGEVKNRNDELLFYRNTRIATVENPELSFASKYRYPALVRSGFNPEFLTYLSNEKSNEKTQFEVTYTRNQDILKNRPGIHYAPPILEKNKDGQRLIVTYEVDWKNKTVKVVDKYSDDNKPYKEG
T2 chain 2: T1 chain

[3] = biological target: T1, LukG_TCH1516; assay: ForteBio
[4] = biological target: T3, LukGH_MSHR1132; assay: ForteBio
T3 chain 1: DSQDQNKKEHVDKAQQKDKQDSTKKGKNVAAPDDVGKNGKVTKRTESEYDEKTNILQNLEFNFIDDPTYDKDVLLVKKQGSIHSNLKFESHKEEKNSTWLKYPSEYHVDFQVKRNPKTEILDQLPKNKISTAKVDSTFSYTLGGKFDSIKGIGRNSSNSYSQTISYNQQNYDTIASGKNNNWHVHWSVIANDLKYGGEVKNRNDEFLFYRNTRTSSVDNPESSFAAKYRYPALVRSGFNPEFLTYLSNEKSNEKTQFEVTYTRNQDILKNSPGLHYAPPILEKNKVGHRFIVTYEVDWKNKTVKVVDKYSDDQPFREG
T3 chain 2: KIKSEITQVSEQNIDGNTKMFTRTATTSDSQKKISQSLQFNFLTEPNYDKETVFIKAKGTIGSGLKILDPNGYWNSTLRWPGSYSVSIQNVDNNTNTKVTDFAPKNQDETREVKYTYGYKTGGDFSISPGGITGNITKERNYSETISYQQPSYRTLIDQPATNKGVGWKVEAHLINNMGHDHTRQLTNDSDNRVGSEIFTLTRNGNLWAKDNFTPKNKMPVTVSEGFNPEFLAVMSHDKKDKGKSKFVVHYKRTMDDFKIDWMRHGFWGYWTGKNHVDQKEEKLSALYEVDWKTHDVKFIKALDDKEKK

[5] = biological target: T4, LukGH_H19; assay: ForteBio
T4 chain 1: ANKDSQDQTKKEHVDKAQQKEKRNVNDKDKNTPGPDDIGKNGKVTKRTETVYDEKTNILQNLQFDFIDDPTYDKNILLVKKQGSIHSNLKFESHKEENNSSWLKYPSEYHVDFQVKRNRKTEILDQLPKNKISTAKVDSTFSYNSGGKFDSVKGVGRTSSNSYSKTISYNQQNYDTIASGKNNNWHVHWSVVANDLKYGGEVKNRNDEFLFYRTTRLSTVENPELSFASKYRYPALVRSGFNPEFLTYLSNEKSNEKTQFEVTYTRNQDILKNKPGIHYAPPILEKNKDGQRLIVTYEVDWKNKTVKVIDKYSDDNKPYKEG
T4 chain 2: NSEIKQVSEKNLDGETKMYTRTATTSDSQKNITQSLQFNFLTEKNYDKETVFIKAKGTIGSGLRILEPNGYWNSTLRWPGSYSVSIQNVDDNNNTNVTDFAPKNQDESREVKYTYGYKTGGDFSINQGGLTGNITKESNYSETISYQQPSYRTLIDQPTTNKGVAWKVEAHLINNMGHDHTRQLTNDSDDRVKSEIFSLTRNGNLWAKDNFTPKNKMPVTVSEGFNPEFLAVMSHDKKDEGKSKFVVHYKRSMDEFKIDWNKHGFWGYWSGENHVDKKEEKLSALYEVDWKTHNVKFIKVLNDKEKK

[6] = biological target: T5, LukGH_MRSA252; assay: ForteBio
T5 chain 1: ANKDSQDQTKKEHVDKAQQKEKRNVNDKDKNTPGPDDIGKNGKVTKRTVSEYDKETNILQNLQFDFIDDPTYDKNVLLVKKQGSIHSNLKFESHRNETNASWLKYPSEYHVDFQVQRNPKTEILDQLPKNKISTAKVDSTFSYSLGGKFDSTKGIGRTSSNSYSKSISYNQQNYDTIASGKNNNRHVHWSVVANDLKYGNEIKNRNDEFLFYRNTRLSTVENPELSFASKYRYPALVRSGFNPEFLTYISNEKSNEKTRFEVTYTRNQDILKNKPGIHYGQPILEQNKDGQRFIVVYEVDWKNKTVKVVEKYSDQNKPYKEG
T5 chain 2: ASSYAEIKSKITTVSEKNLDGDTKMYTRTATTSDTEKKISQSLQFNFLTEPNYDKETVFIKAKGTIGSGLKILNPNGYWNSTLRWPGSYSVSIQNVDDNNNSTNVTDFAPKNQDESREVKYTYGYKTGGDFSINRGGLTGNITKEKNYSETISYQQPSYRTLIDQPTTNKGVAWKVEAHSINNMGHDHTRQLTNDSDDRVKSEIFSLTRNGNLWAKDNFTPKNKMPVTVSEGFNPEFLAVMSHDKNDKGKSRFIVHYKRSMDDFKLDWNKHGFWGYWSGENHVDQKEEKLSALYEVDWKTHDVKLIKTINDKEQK

[7] = biological target: T2, LukGH of S. aureus USA300 TCH1516; assay: ForteBio

| Binder | Kd [1] | Kd [2] | Kd [3] | Kd [4] | Kd [5] | Kd [6] | Kd [7] |
| --- | --- | --- | --- | --- | --- | --- | --- |
| B1 | 0.12 nM | 0.00052 nM | 9.7 nM | 0.25 nM | 0.24 nM | 0.25 nM | < 0.1 nM |
| B2 | 0.046 nM | 0.0005 nM | 15.5 nM | 0.39 nM | 0.22 nM | 0.28 nM | 0.24 nM |
